# From the RNAGym collection of RNA variant scans (doi:10.7554/elife.80360)
# B1: CPEB3 Ribozyme (parent)
# chain: GGGGGCCACAGCAGAAGCGUUCACGUCGCGGCCCCUGUCAGAUUCUGGUGAAUCUGCGAAUUCUGCUGU
# Variants of: B1
# Assay: self-cleavage, relative activity (ratio to wild type); higher = more cleavage; co-transcriptional
row,Variant,self-cleavage
1,C9A C12G,0.936
2,C9A C12U,1.02
3,C9A G41C,0.906
4,C9A G41A,0.988
5,C9A C45A,1.02
6,C9A C45U,1.01
7,C9A C34A,1.01
8,C9A C34U,1.04
9,C9A U49C,0.989
10,C9A A13U,0.725
11,C9A A13G,0.901
12,A8U G65C,0.644
13,A8U G65U,0.768
14,C9G A10G,1
15,C9G A10C,0.634
16,C9G A10U,0.987
17,C9A U20A,0.0654
18,C9A U20G,0.19
19,C9A A40C,0.71
20,C9A A40U,0.969
21,C9A U36C,0.968
22,C9A U36G,0.244
23,C9A A16U,0.957
24,A8U G50A,1.03

row,Variant,self-cleavage
1,A8U G50C,1
2,C9A G17A,0.707
3,C9A G17U,0.622
4,A8U U21C,0.846
5,A8U U21G,0.588
6,A8U U64A,0.969
7,C9A U55A,0.981
8,C9A U21C,0.985
9,C9A U21G,0.774
10,C9A U46C,0.996
11,C9A U46A,1.02
12,C9A A59C,0.854
13,C9A A59G,1.03
14,A8U U36C,0.887
15,A8U U36A,0.229
16,C9A C66G,0.923
17,C9A C66A,0.905
18,C9A U53C,0.997
19,C9A U53A,1.03
20,A8U G47U,0.999
21,A8U G47C,1.03
22,A8U G47A,1.01
23,C9A C33G,0.962
24,C9A C33A,0.993

row,Variant,self-cleavage
1,C9A C33U,1.03
2,C9A G68A,1.04
3,C9A G68U,1.04
4,C9A G68C,1.05
5,A8U G31C,0.247
6,A8U G31U,0.806
7,A8U G31A,0.925
8,A8U U69A,1.05
9,A8U U69C,1.06
10,C9A U67G,1.05
11,C9A U67C,1
12,A8U U44C,0.933
13,A8U U44G,0.932
14,C9A C29G,0.854
15,C9A A42C,0.999
16,A8U U20A,0.116
17,A8U U20C,0.25
18,A8U U20G,0.163
19,C9A U61G,0.86
20,C9A U61C,0.863
21,C9A U61A,0.988
22,C9A C57A,0.37
23,C9A C57U,0.423
24,C9A C57G,0.366

row,Variant,self-cleavage
1,C9A A15G,1.03
2,C9A C63U,0.985
3,C9A C39G,1
4,C9A C39A,0.942
5,C9A G14C,0.513
6,C9A G65C,0.627
7,A8U G48A,1.03
8,A8U G48C,0.994
9,C9A G47U,1.05
10,C9A G47A,1.03
11,C9A A23U,1
12,C9A A23G,1.02
13,C9G A13C,0.845
14,C9G A13G,0.922
15,C9A U38C,1.03
16,A8U G41C,0.809
17,A8U G41U,0.877
18,C9A U62A,1.01
19,C9A C18U,0.919
20,C9A C18A,0.188
21,C9A G19C,0.111
22,C9A G19U,0.609
23,C9A G19A,0.129
24,C9A A10U,1.05

row,Variant,self-cleavage
1,C9A C35U,1.03
2,C9A C35G,0.72
3,C9A C35A,0.423
4,C9A C27U,0.695
5,C9A C27G,0.256
6,A8U G56A,0.957
7,A8U G56U,0.972
8,C9A U43A,0.967
9,C9A U43G,0.876
10,A8U U46A,1
11,A8U U46G,1.01
12,A8U U46C,0.998
13,C9A U69G,1.07
14,C9A U69C,1.08
15,A8U U26C,0.924
16,A8U U26G,0.97
17,A8U U26A,0.893
18,A8U U38G,0.221
19,A8U U38A,0.871
20,A8U U38C,1.01
21,C9A U64A,0.94
22,C9A U64C,0.938
23,C9A U64G,0.951
24,C9A U26A,0.946

row,Variant,self-cleavage
1,C9A U26C,0.983
2,C9A C54U,1.03
3,C9A C54G,1.01
4,C9A C54A,1
5,C9A A51G,1.03
6,C9A A51C,1.03
7,C9A A51U,1.04
8,C9A U44C,1.02
9,C9A U44A,0.998
10,A8U U43A,0.899
11,A8U U43C,0.951
12,C9A G11A,0.938
13,C9A G11U,0.973
14,C9A G11C,0.935
15,A8U U49G,1.02
16,C9A C32U,1.01
17,C9A G25U,0.181
18,C9A G25A,0.264
19,C9A G30A,1.01
20,C9A G30C,0.953
21,C9A G30U,0.846
22,C9A G37C,0.242
23,C9A G37A,0.397
24,C9A G58A,1.02

row,Variant,self-cleavage
1,A8U G37U,0.221
2,A8U G37A,0.215
3,A8U G68A,0.991
4,A8U G68C,1.02
5,A8U G68U,1.03
6,A8U G58C,0.988
7,A8U G58U,1.03
8,A8U U55G,0.823
9,A8U U55C,0.912
10,C9A G28U,0.187
11,C9A G28C,0.196
12,C9A G48C,1.02
13,C9A G48U,1.03
14,A8U U67G,1.03
15,C9A A60G,1.04
16,C9A A60U,0.632
17,C9A A60C,0.364
18,A8U U61G,0.959
19,A8U U61A,0.944
20,C9A C24G,0.697
21,C9A G56A,1.02
22,A8U U53C,0.901
23,A8U U62C,0.994
